Values of other authors, collected in article PMC4958339.

Key:
[1] = target: Pins/LGN (UniProt Q8VDU0)
[2] = target: Lgl (UniProt P08111)
Chain of UniProt P08111 (P08111 648-670): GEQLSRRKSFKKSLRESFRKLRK

Chain of UniProt Q8VDU0 (Q8VDU0 392-414): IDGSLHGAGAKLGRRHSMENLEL

In the case of Dlg GUK (from UniProt Q12959), the Kd [1] is given as 0.33 µM and the Kd [2] is given as 10.2 µM.
